Reference: doi:10.1101/634816
Changes are numbered by the printed parent chain. Where two headings read alike, the source gives them in different places.

T1: AtARF5-DBD (Arabidopsis thaliana, UniProt P93024 1-390)
T1 sequence: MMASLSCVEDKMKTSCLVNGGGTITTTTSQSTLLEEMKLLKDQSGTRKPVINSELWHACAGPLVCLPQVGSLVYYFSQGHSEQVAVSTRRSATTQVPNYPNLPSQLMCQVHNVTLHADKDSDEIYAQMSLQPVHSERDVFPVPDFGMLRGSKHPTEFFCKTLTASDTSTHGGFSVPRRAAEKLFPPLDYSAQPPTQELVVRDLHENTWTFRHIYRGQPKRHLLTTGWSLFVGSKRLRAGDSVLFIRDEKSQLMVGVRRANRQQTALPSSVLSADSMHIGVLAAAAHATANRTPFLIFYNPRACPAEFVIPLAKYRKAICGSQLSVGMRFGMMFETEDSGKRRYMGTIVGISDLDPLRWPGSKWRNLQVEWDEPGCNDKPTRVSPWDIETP

B1: ER7-GG (dsDNA)
DNA 1: CCGGTAGGTTGTCGGCCAAAGGCCGACAACCGGTAGG
DNA 2: CCTACCGGTTGTCGGCCTTTGGCCGACAACCTACCGG
B2: ER7 (dsDNA)
DNA 1: B1 DNA 1 with G14T, G15C, C23G, C24A
DNA 2: B1 DNA 2 with G14T, G15C, C23G, C24A

Assays:
AtARF5-DBD [1] = target: T1, AtARF5-DBD; test: Ni-NTA pull-down with SYBR Gold fluorescence
AtARF5-DBD [2] = target: T1, AtARF5-DBD; test: Ni-NTA pull-down with SYBR Gold fluorescence; remark: listed apart in the source

Binder	binding result (AtARF5-DBD [1])	binding result (AtARF5-DBD [2])
B1	binds	
B2		binds
